{
  "source": "patent US9732101B2",
  "about": "“Bioreversible boronates for delivery of molecules into cells” (WISCONSIN ALUMNI RESEARCH FOUNDATION, priority 2012, dated 2017)",
  "key": {"Pro-5 cells [1]": {"test_system": "Pro-5 cells", "test": "Confocal microscopy of live cells", "assay_type": "cell-based, Chinese hamster", "details": "5 μM, 4 h", "experimental": "(§1) Cell lines were obtained from American Type Culture Collection (Manassas, Va.) and were maintained according to the recommended procedures. Cells were grown in a cell culture incubator at 37° C. under CO2 (5% v/v) in flat-bottomed culture flasks. Cell medium was supplemented with GIBCO fetal bovine serum (FBS) (10% v/v), penicillin (100 units/mL), and streptomycin (100 μg/mL) in the appropriate cellular medium as follows: Pro-5, MEM α+ribonucleosides+deoxyribonucleosides; Lec-2, MEM α-ribonucleosides-deoxyribonucleosides; and K562, RPMI 1640. Cells were counted by hemocytometry for dispensing into 12-well plates (Corning Costar, Lowell, Mass.) or 8-well chambered coverglass slides (Nuc Lab-Tek II, Thermo Scientific).\nPro-5 cells were plated on Nunc Lab-tek II 8-well chambered coverglass 24 h before use and grown to 80% confluency. Cells were incubated with 5 μM BODIPY FL-labeled ribonucleases for 4 h. Cell nuclei were stained with Hoechst 33342 (Invitrogen, 2 μg/mL) for the final 15 min of incubation. Cells were then washed twice with PBS, suspended in PBS, and examined using a Nikon Eclipse C1 laser scanning confocal microscope. Results are illustrated in FIG. 4B."}, "Pro-5 cells [2]": {"test_system": "Pro-5 cells", "test": "Cellular internalization by flow cytometry", "assay_type": "cell-based, Chinese hamster", "experimental": "as §1\n(§2) BODIPY-FL was excited with a 488 nm solid-state laser and the emission was collected with a 530/30 bandpass filter. To collect the most reproducible data, for every flow cytometry experiment, the sensitivity (voltage) of the photomultiplier tube was set for all data collections using mid-range Rainbow beads from Spherotech (Lake Forest, Ill.) to a predetermined fluorescence target value. At least 10,000 cellular events were acquired for each sample. Data were analyzed using FlowJo 8.1.3 (Treestar, Ashland, Oreg.).\n(§3) The day prior to an experiment, Pro-5 and Lec-2 cells were plated in 12-well plates at 1×10^5 cells/well. The day of the experiment, the appropriate amount of fructose was dissolved into the cellular medium to obtain a final fructose concentration of 250 mM, and the medium was passed through a 0.45-μm syringe filter from Whatman (Piscataway, N.J.). Non-fructose-containing medium was filtered likewise. Stock solutions of fluorescently labeled ribonucleases were diluted into the cell culture to a final concentration of 5 μM. Ribonucleases were incubated with cells for 4 h. Cells were then rinsed with PBS (2×400 μL), removed from the cell culture plate with trypsin (400 μL, 0.05% (1×) with EDTA; Invitrogen, Carlsbad, Calif.), placed in flow cytometry tubes containing 80 μL of FBS, and incubated on ice until analyzed by flow cytometry. Final fluorescence values were divided by the percent fluorophore labeling of the ribonuclease to determine the corrected value of fluorescence. Experiments were run twice in triplicate unless otherwise indicated. Data is illustrated in FIG. 4A and FIG. 4C."}, "Lec-2 cells": {"test_system": "Lec-2 cells", "test": "Cellular internalization by flow cytometry", "assay_type": "cell-based, Chinese hamster", "experimental": "as §1, §2, §3"}, "K-562 cells": {"test_system": "K-562 cells", "test": "Cell-proliferation assay, [methyl-3H]thymidine incorporation", "assay_type": "cell-based, human", "experimental": "The effect of unmodified and boronated RNase A on the proliferation of K-562 cells was assayed as described in For assays, 5 μL of a solution of the ribonuclease or PBS (control) was added to 95 μL of cells (5.0×10^4 cells/mL). For co-treatment assays with fructose, ribonucleases were first serially diluted at 2× concentration, followed by addition of an equal volume of 2 M fructose in PBS to each ribonuclease dilution, resulting in a 1× ribonuclease dilution as before but now containing 1 M fructose. Then, 5 μL of each dilution was added to cells as above, including a control of PBS containing 1 M fructose. Because 5 μL of samples were added to 95 μL of cells, the final concentration of fructose in each well was 50 mM.\nAfter a 44-h incubation, K-562 cells were treated with [methyl-^3H]thymidine for 4 h, and the incorporation of radioactive thymidine into cellular DNA was quantitated by liquid scintillation counting. The results are shown as the percentage of [methyl-^3H]thymidine incorporated relative to control cells treated with PBS in FIG. 5. […] Values for IC50 were calculated by fitting the curves by nonlinear regression to the equation: y=100%/(1+10^(log(IC^50^)-log [ribonuclease])h), in which y is the total DNA synthesis following the [methyl-^3H]thymidine pulse and h is the slope of the curve."}, "[3]": {"details": "5 μM, 4 h, relative to unmodified RNase A"}},
  "note": "Where two headings read alike, the source gives them in different places.",
  "data": [
    {"molecule": "benzoboroxole-boronated RNase A: RNase A with 5-amino-2-hydroxymethylphenylboronic acid conjugated to protein carboxyl groups by carbodiimide condensation (conjugate, UniProt P61823 27-150, looked up, benzoboroxole conjugated to carboxyl groups, RNase A with 5-amino-2-hydroxymethylphenylboronic acid conjugated to protein carboxyl groups by carbodiimide condensation) Ribonuclease pancreatic: KETAAAKFERQHMDSSTSAASSSNYCNQMMKSRNLTKDRCKPVNTFVHESLADVQAVCSQKNVACKNGQTNCYQSYSTMSITDCRETGSSKYPNCAYKTTQANKHIIVACEGNPYVPVHFDASV", "values": [
      {"measurement": "intracellular staining pattern", "setting": "Pro-5 cells [1]", "result": "punctate staining"},
      {"measurement": "increase in cellular uptake", "setting": "Pro-5 cells [2]; [3]", "result": "4- to 5 fold"},
      {"measurement": "effect of fructose on enhancement of cellular uptake", "setting": "Pro-5 cells [2]; fructose 0.25 M", "result": "eliminated"},
      {"measurement": "increase in cellular uptake", "setting": "Lec-2 cells; [3]", "result": "4- to 5 fold"},
      {"measurement": "effect of fructose on enhancement of cellular uptake", "setting": "Lec-2 cells; fructose 0.25 M", "result": "eliminated"},
      {"measurement": "IC50", "setting": "K-562 cells; [methyl-3H]thymidine incorporation, 44-h incubation, read-out: IC50, inhibition of K-562 cell proliferation", "result": "4 ± 0.3", "unit": "µM"},
      {"measurement": "IC50", "setting": "K-562 cells; fructose 50 mM, read-out: IC50, inhibition of K-562 cell proliferation in the presence of fructose", "result": "9 ± 1", "unit": "µM"}
    ]}
  ]
}
